Positions count from the first letter of the chain named.
Legend:
GFP-TONSL E530A = biological target: T1, GFP-TONSL E530A (Homo sapiens, UniProt Q96HA7 1-1378); assay: GFP immunoprecipitation of GFP-TONSL from transfected HeLa S3 cells, western blot (co-IP; association may be indirect)
T1 construct: also called TONSL E530A / GFP; not shown: N-terminal GFP tag
T1 sequence: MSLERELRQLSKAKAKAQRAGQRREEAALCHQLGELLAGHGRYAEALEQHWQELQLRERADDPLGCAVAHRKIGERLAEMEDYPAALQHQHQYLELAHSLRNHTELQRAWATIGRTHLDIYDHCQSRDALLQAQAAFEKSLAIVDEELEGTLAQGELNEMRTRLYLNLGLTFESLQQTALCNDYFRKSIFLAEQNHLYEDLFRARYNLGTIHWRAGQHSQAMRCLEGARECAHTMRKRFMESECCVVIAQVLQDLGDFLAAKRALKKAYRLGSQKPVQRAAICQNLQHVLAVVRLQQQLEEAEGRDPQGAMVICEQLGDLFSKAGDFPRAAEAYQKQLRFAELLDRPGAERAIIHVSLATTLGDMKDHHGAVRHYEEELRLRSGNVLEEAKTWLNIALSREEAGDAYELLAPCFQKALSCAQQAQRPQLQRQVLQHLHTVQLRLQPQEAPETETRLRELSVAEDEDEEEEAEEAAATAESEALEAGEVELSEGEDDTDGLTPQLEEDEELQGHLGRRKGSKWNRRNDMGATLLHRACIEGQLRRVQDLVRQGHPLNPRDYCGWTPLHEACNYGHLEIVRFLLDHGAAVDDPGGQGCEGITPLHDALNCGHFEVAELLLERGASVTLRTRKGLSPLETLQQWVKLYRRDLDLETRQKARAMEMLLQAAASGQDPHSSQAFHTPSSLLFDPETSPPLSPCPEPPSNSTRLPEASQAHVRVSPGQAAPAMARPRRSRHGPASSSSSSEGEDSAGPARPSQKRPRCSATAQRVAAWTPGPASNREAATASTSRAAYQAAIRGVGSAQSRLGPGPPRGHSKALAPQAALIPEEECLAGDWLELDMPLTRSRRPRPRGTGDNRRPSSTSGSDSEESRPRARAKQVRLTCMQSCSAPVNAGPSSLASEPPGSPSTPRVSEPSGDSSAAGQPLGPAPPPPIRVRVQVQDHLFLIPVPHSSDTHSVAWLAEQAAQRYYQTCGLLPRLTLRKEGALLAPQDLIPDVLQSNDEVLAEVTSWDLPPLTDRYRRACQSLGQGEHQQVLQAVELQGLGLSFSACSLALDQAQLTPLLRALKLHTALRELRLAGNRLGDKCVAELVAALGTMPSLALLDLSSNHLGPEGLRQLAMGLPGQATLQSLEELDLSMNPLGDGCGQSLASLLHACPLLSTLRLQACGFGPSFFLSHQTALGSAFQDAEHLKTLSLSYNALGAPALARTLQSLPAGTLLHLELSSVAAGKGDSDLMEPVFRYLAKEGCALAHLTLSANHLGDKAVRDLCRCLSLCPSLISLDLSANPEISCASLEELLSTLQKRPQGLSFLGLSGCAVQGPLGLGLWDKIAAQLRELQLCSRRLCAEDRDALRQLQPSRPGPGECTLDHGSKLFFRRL

GFP-TONSL N571A = biological target: T2, GFP-TONSL N571A (Homo sapiens, UniProt Q96HA7 1-1378); assay: as above
T2 construct: also called TONSL N571A / GFP; not shown: N-terminal GFP tag
T2 sequence: T1 sequence with A530E, N571A

B1: MMS22L (endogenous, in cell extracts) (other, UniProt Q6ZRQ5 1-1243, looked up)
chain: MENCSAASTFLTDSLELELGTEWCKPPYFSCAVDNRGGGKHFSGESYLCSGALKRLILNLDPLPTNFEEDTLEIFGIQWVTETALVNSSRELFHLFRQQLYNLETLLQSSCDFGKVSTLHCKADNIRQQCVLFLHYVKVFIFRYLKVQNAESHVPVHPYEALEAQLPSVLIDELHGLLLYIGHLSELPSVNIGAFVNQNQIKLFPPSWHLLHLHLDIHWLVLEILYMLGEKLKQVVYGHQFMNLASDNLTNISLFEEHCETLLCDLISLSLNRYDKVRSSESLMSDQCPCLCIKELWVLLIHLLDHRSKWFVSESFWNWLNKLLKTLLEKSSDRRRSSMPVIQSRDPLGFSWWIITHVASFYKFDRHGVPDEMRKVESNWNFVEELLKKSISVQGVILEEQLRMYLHCCLTLCDFWEPNIAIVTILWEYYSKNLNSSFSISWLPFKGLANTMKSPLSMLEMVKTCCCDKQDQELYKSSSSYTIFLCILAKVVKKAMKSNGPHPWKQVKGRIYSKFHQKRMEELTEVGLQNFFSLFLLLAAVAEVEDVASHVLDLLNFLKPAFVTSQRALIWKGHMAFLLMYAQKNLDIGVLAEKFSCAFREKAKEFLVSKNEEMVQRQTIWTLLSIYIDGVQEVFETSYCLYPSHEKLLNDGFSMLLRACRESELRTVLSFLQAVLARIRSMHQQLCQELQRDNVDLFVQSSLSAKERHLAAVASALWRHFFSFLKSQRMSQVVPFSQLADAAADFTLLAMDMPSTAPSDFQPQPVISIIQLFGWDDIICPQVVARYLSHVLQNSTLCEALSHSGYVSFQALTVRSWIRCVLQMYIKNLSGPDDLLIDKNLEEAVEKEYMKQLVKLTRLLFNLSEVKSIFSKAQVEYLSISEDPKKALVRFFEAVGVTYGNVQTLSDKSAMVTKSLEYLGEVLKYIKPYLGKKVFSAGLQLTYGMMGILVKSWAQIFATSKAQKLLFRIIDCLLLPHAVLQQEKELPAPMLSAIQKSLPLYLQGMCIVCCQSQNPNAYLNQLLGNVIEQYIGRFLPASPYVSDLGQHPVLLALRNTATIPPISSLKKCIVQVIRKSYLEYKGSSPPPRLASILAFILQLFKETNTDIYEVELLLPGILKCLVLVSEPQVKRLATENLQYMVKACQVGSEEEPSSQLTSVFRQFIQDYGMRYYYQVYSILETVATLDQQVVIHLISTLTQSLKDSEQKWGLGRNIAQREAYSKLLSHLGQMGQDEMQRLENDNT
B1: binds (GFP-TONSL E530A); binds (GFP-TONSL N571A).
